Measurements published in the supplement of paper PMC10724198.
± gives the standard deviation of the averaged measurements.

System: Saccharomyces cerevisiae
Assay: protein stability index of tFT-peptide fusion (C-terminal peptide) (PSI (0-1 scale)); higher = more stable (slower turnover)
Conditions: temperature: 30 C
Description: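 MPS profiling in S. cerevisiae of the yeast C-terminome library: the last 12 aa of each annotated ORF are fused to the C-terminus of a sfGFP-mCherry timer, after a GGGS linker. Cells are FACS-sorted into 8 mCherry/sfGFP bins and deep-sequenced. PSI runs from 0 (unstable) to 1 (stable); wild type and das1Δ backgrounds, two technical replicates each.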

[1] = genetic background: das1 deletion

Sequence | protein stability index [1] | protein stability index (genetic background: wild type)
TREPISYKLDIQ [ERO1 C-terminal 12 aa] | 0.678 ± 0.044 | 0.67 ± 0.024
TRKWANAAKGMP [YLR407W C-terminal 12 aa] | 0.6889 ± 0.0067 | 0.727 ± 0.012
TRMNVSHYYIIT [YOL166C C-terminal 12 aa] | 0.6573 ± 0.0038 | 0.641 ± 0.019
TRRVAARKGKLS [UTR5 C-terminal 12 aa] | 0.686 ± 0.0091 | 0.32 ± 0.014
TSAFNKLHIVEE [YAK1 C-terminal 12 aa] | 0.712 ± 0.024 | 0.67 ± 0.045
TSDHLFVVFFFW [YDL034W C-terminal 12 aa] | 0.327 ± 0.019 | 0.319 ± 0.035
TSHEAVAAKKLI [SHC1 C-terminal 12 aa] | 0.673 ± 0.018 | 0.249 ± 0.011
TSILEDVDGDDE [YOL050C C-terminal 12 aa] | 0.706 ± 0.041 | 0.669 ± 0.026
TSPRNICTSLCV [SAL1 C-terminal 12 aa] | 0.66358 ± 0.00023 | 0.655 ± 0.038
TTDEEVKEKKKR [GLE2 C-terminal 12 aa] | 0.6893 ± 0.0049 | 0.692 ± 0.028
TTNANVNNSSLS [FKH1 C-terminal 12 aa] | 0.715 ± 0.021 | 0.6623 ± 0.0022
TVLKAAKKEGLN [MGR3 C-terminal 12 aa] | 0.672 ± 0.015 | 0.671 ± 0.044
TVNYLHRLLETD [ISN1 C-terminal 12 aa] | 0.73 ± 0.009 | 0.721 ± 0.039
TVPGDENKITKK [PDR12 C-terminal 12 aa] | 0.711 ± 0.017 | 0.654 ± 0.064
TVSDGGSIFECS [RAD28 C-terminal 12 aa] | 0.7127 ± 0.0051 | 0.708 ± 0.06
TYRLLLRLHAQD [FAR7 C-terminal 12 aa] | 0.68 ± 0.035 | 0.641 ± 0.019
TYSYTIDHPVLT [NUP100 C-terminal 12 aa] | 0.659 ± 0.021 | 0.659 ± 0.034
VAASKASKKSKI [NSA1 C-terminal 12 aa] | 0.683 ± 0.035 | 0.677 ± 0.085
VAFFKAVGATIM [YOR146W C-terminal 12 aa] | 0.625 ± 0.011 | 0.627 ± 0.054
VAKAEKLAAEAN [ATP2 C-terminal 12 aa] | 0.684 ± 0.03 | 0.705 ± 0.022
VDALQIQYNRRP [SCD5 C-terminal 12 aa] | 0.681 ± 0.013 | 0.692 ± 0.033
VDESWLPETYKK [IRC22 C-terminal 12 aa] | 0.7425 ± 0.0014 | 0.711 ± 0.022
VDQLFEKASVLY [RPN6 C-terminal 12 aa] | 0.68 ± 0.017 | 0.721 ± 0.03
VFISTVLLAIVW [YAL065C C-terminal 12 aa] | 0.196 ± 0.015 | 0.192 ± 0.0067
VFPDVLFTFLFS [YEL010W C-terminal 12 aa] | 0.70228 ± 0.00029 | 0.713 ± 0.027
VFPGNYVQLNKN [RVS167 C-terminal 12 aa] | 0.6933 ± 0.0022 | 0.679 ± 0.027

Sequence | protein stability index [1] | protein stability index (genetic background: wild type)
VGFAVMALMDEH [YKE4 C-terminal 12 aa] | 0.703 ± 0.052 | 0.7046 ± 0.0017
VHDDSRCYTHFY [BNI4 C-terminal 12 aa] | 0.7313 ± 0.0033 | 0.726 ± 0.047
VHKFGWSLSFSP [POR2 C-terminal 12 aa] | 0.701 ± 0.017 | 0.681 ± 0.038
VKEIPEYSHLID [GCN5 C-terminal 12 aa] | 0.718 ± 0.0055 | 0.697 ± 0.0012
VKIATSILGKKL [PGS1 C-terminal 12 aa] | 0.68478 ± 0.00021 | 0.687 ± 0.025
VKQMRKKKDKGD [MSB3 C-terminal 12 aa] | 0.688 ± 0.0093 | 0.691 ± 0.042
VKSSMGPAFRLY [RPL1A C-terminal 12 aa] | 0.6853 ± 0.0045 | 0.712 ± 0.046
VKTLANEILNII [ECM11 C-terminal 12 aa] | 0.6687 ± 0.0062 | 0.711 ± 0.0092
VLLTILLFIQAY [SPO19 C-terminal 12 aa] | 0.1801 ± 0.0012 | 0.19 ± 0.0039
VLMLETIAYLFS [NFG1 C-terminal 12 aa] | 0.487 ± 0.022 | 0.5059 ± 0.0015
VNNFKMFSNSSV [YIL115W-A C-terminal 12 aa] | 0.704 ± 0.027 | 0.765 ± 0.045
VPDIPPPPALVA [NUP42 C-terminal 12 aa] | 0.632 ± 0.034 | 0.6989 ± 0.0048
VPEEQRIKRRKI [IRC4 C-terminal 12 aa] | 0.705 ± 0.037 | 0.3 ± 0.035
VPKSLYGVTRTR [GAT3 C-terminal 12 aa] | 0.697 ± 0.008 | 0.686 ± 0.032
VPYAKILDQCIL [YGL230C C-terminal 12 aa] | 0.693 ± 0.027 | 0.721 ± 0.021
VQNLIAAVMGEL [PNP1 C-terminal 12 aa] | 0.7186 ± 0.002 | 0.664 ± 0.024
VRADDLSTRFNI [RRP43 C-terminal 12 aa] | 0.657 ± 0.0082 | 0.664 ± 0.017
VSIYKPYTEESE [WTM1 C-terminal 12 aa] | 0.662 ± 0.0069 | 0.663 ± 0.027
VSPYDYNHKRVS [DIB1 C-terminal 12 aa] | 0.69264 ± 0.00023 | 0.678 ± 0.035
VTRAAESLGFTV [MIP6 C-terminal 12 aa] | 0.6997 ± 0.0036 | 0.69562 ± 4.2e-05
VVAQKPKLPYTK [YBR225W C-terminal 12 aa] | 0.694 ± 0.026 | 0.725 ± 0.066
VVNKYLKENGYY [APE2 C-terminal 12 aa] | 0.705 ± 0.02 | 0.6615 ± 0.0031
VVVTGNLQILEH [UGP1 C-terminal 12 aa] | 0.678 ± 0.03 | 0.684 ± 0.019
VYARDAAALRPV [SCS3 C-terminal 12 aa] | 0.716 ± 0.021 | 0.686 ± 0.03
VYEVVCDSVRNW [MRX21 C-terminal 12 aa] | 0.692 ± 0.023 | 0.717 ± 0.0011
VYEYIVNVNEYA [CPS1 C-terminal 12 aa] | 0.6949 ± 0.0031 | 0.682 ± 0.0094

Sequence | protein stability index [1] | protein stability index (genetic background: wild type)
WEHAMRSRRHKR [SWC3 C-terminal 12 aa] | 0.726 ± 0.0012 | 0.673 ± 0.027
WEKFIELEKNYK [MST1 C-terminal 12 aa] | 0.696 ± 0.0078 | 0.799 ± 0.04
WHKHKTSSDKNI [YDR261C-D C-terminal 12 aa] | 0.733 ± 0.02 | 0.749 ± 0.012
WKLAKLQIDEAL [SNX41 C-terminal 12 aa] | 0.693 ± 0.0081 | 0.6896 ± 0.0063
WLSKSGSSAALP [TOS1 C-terminal 12 aa] | 0.717 ± 0.014 | 0.685 ± 0.022
WQLVDNYESGYE [YGL194C-A C-terminal 12 aa] | 0.7087 ± 0.0048 | 0.648 ± 0.031
WQTLVMILQESG [NPL4 C-terminal 12 aa] | 0.392 ± 0.0077 | 0.444 ± 0.021
WTLLSRFLDREW [ATG36 C-terminal 12 aa] | 0.684 ± 0.015 | 0.6939 ± 0.0011
WVDAFGIIYGAL [YIL108W C-terminal 12 aa] | 0.7436 ± 0.0063 | 0.7232 ± 0.0018
YALKRNAFKLLK [CRD1 C-terminal 12 aa] | 0.682 ± 0.011 | 0.691 ± 0.02
YDLEAGENKFNF [URA7 C-terminal 12 aa] | 0.7022 ± 0.0022 | 0.703 ± 0.0099
YEKVVELWNKVV [MNT4 C-terminal 12 aa] | 0.701 ± 0.018 | 0.199 ± 0.0098
YEPTDWECTDAP [YJR096W C-terminal 12 aa] | 0.7254 ± 0.0027 | 0.708 ± 0.06
YITTPSSSGHAL [YIL141W C-terminal 12 aa] | 0.716 ± 0.0081 | 0.674 ± 0.027
YKIKKQPRKKQQ [HST1 C-terminal 12 aa] | 0.739 ± 0.015 | 0.708 ± 0.081
YKLGPGEDTATK [DPL1 C-terminal 12 aa] | 0.707 ± 0.023 | 0.702 ± 0.032
YLALKWIVVEQK [ADP1 C-terminal 12 aa] | 0.521 ± 0.021 | 0.573 ± 0.018
YLEHQQIHGRVV [YHR145C C-terminal 12 aa] | 0.679 ± 0.017 | 0.691 ± 0.013
YLKNYFKTKHII [ERV25 C-terminal 12 aa] | 0.702 ± 0.018 | 0.185 ± 0.0056
YLTFYKSPKTFY [YDR183C-A C-terminal 12 aa] | 0.71 ± 0.037 | 0.637 ± 0.055
YNSDSGSYYTLM [YOR192C-C C-terminal 12 aa] | 0.704 ± 0.017 | 0.731 ± 0.097
YPGEAKRPQERF [COX10 C-terminal 12 aa] | 0.6898 ± 0.0058 | 0.7 ± 0.047
YSDTIWNVEPVT [GPH1 C-terminal 12 aa] | 0.729 ± 0.015 | 0.73 ± 0.018
YSKHLKRLLPYH [MRP35 C-terminal 12 aa] | 0.6788 ± 0.0019 | 0.712 ± 0.071
YTNLIASKVKKQ [YKL177W C-terminal 12 aa] | 0.714 ± 0.036 | 0.6504 ± 0.0044
